Among the data in the RNAGym collection of RNA variant scans (doi:10.7554/elife.80360) are self-cleavage values, retold here.

The labels stand for the following.
B1: Hairpin Ribozyme (parent)
chain: GUCCUCUUUCACGUGCGCGUGAAAGAGAGAAGUGAACCAGAGAAACACACGUUGUGGUAUAUUACCUGGUA

The variants in the series derive from B1. In words: self-cleavage, relative activity (ratio to wild type); higher = more cleavage; co-transcriptional.
In the case of G15C U70A, the self-cleavage was 0.848.
In the case of G15C G25C, the self-cleavage came out at 0.687.
The same measure for G15C A47C: 0.295.
Take G15C A30U: the self-cleavage was 0.293.
On to G15A A28U, for which the self-cleavage came to 0.588.
The same measure for U14G U52C: 0.966; for U14G U52A: 1.02; for G15U A31G: 0.795.
The same measure for G15U A31U: 0.232; for G15U C66U: 0.574; for G15A G57U: 0.3.
As for U14G G51U, the figure is 1.02; as for G15A G42C, 0.294.
G15A G42U: the self-cleavage turned out to be 0.301.
The same measure for G15U C46A: 0.167.
As for G15U A59U, the figure is 0.0728; as for G15C C46A, 0.136; as for G15A A39C, 0.508.
On to G15A A39U, for which the self-cleavage was 0.351.
The same measure for G15A A64C: 0.171.
On to G15A A64U, for which the self-cleavage is 0.233.
For the variant G15U A35U, the self-cleavage amounted to 0.842.
As for G15A C66A, the figure is 0.129; as for G15C C66A, 0.144.
For the variant G15A G29U, the self-cleavage was determined as 0.0945.
As for G15U G17A, the figure is 1.05.
As for U14G U67G, the figure is 0.243.
The same measure for G15C U60G: 0.466; for G15A A36G: 1.08; for G15A A36C: 0.815.
For the variant G15C U52A, the self-cleavage was found to be 1.19.
The same measure for G15C U52C: 1.05.
The same measure for G15C C48G: 0.109; for G15A U53A: 0.862; for G15A U53G: 0.687.
As for G15U A47U, the figure is 0.215; as for G15U A47C, 0.324.
On to G15U C50U, for which the self-cleavage amounted to 0.49.
The same measure for G15A U62G: 0.109; for G15A U62A: 0.177.
As for G15A G21C, the figure is 0.798; as for G15A G21A, 0.831; as for G15C G68A, 0.324.
As for G15A A45U, the figure is 0.204.
Regarding G15A A45C, the self-cleavage came to 0.0834.
In the case of G15A U20C, the self-cleavage turned out to be 0.864.
The same measure for G15A U20A: 0.847; for G15U A44G: 0.0895; for G15U A44U: 0.174.
As for G15C A31G, the figure is 0.692.
The same measure for G15C A31U: 0.105; for G15A G25A: 0.576.
Turning to G15A U67A, the self-cleavage came out at 0.188.
The same measure for G15A A23G: 0.862; for G15C C50U: 0.47; for G15C C50G: 0.184.
Turning to G15C C50A, the self-cleavage is 0.169.
Turning to U14G G54U, the self-cleavage turned out to be 0.491.
Regarding U14G G54C, the self-cleavage stood at 0.315.
As for G15A U33G, the figure is 0.136; as for G15C G19U, 0.953; as for G15C G19C, 0.786.
The same measure for G15U G27U: 0.35.
As for G15C C65A, the figure is 0.928; as for G15U C16G, 1.09.
As to G15U A39C, the self-cleavage came to 0.7.
Take G15C A71U: the self-cleavage worked out at 0.793.
As for G15C C38U, the figure is 0.6; as for G15U G19C, 1.
The same measure for G15U G40C: 0.0954; for U14G G57C: 0.0955.
The same measure for G15C G42C: 0.369; for G15A U52C: 0.916; for U14G U53C: 0.925.
Consider G15U C65U, for which the self-cleavage was 0.33.
The same measure for G15A: 0.906; for G15C: 1.03; for G15U: 1.08.
As to G15U A36C, the self-cleavage came out at 0.839.
The same measure for G15U A36U: 0.606.
As for G15C G69A, the figure is 0.414.
As for G15C G69C, the figure is 0.275; as for G15A U70C, 0.759.
As for G15A G68A, the self-cleavage was determined as 0.362.
G15A G68C: the self-cleavage turned out to be 0.219.
The same measure for G15U A49G: 0.539.
The same measure for G15A A31C: 0.151; for G15C U63G: 0.127; for G15A G27A: 0.541.
As for U14G G56A, the figure is 0.103; as for G15U A45C, 0.169; as for G15U A45G, 0.184.
G15A G17U: the self-cleavage amounted to 1.05.
The same measure for G15C C18A: 1.18; for G15C G56A: 0.129; for G15C U67G: 0.294.
As for G15U G29U, the figure is 0.124.
As for G15C A26G, the figure is 1.03.
As for G15U G21U, the self-cleavage was 0.868.
On to G15U G21C, for which the self-cleavage was 0.829.
As for G15U G21A, the figure is 0.872; as for U14G G68U, 0.333; as for U14G G68A, 0.32.
As for G15U A30C, the figure is 0.173; as for G15U A30G, 0.122; as for G15A G32C, 0.174.
As for G15U G54A, the figure is 0.695; as for G15U G54U, 0.632; as for G15C A59G, 0.104.
On to G15A G34U, for which the self-cleavage stood at 1.26.
The same measure for G15A G34A: 1.11; for U14G U60C: 1.23.
As for G15A C46A, the figure is 0.132; as for G15A C46G, 0.0897; as for U14G U58G, 0.464.
For G15C G40U, the self-cleavage was 0.23.
The same measure for G15C G40C: 0.125; for G15U A64U: 0.139; for G15U G34C: 1.33.
As for G15U G34A, the self-cleavage came to 1.33.
As for G15A G54U, the figure is 0.737.
The same measure for G15U G25U: 0.778.
The same measure for G15C A43G: 0.11; for G15A A61G: 0.18; for G15C G57A: 0.24.
On to G15C U62A, for which the self-cleavage was 0.14.
In the case of G15U G42U, the self-cleavage turned out to be 0.369.
The same measure for G15C C16A: 1.1; for G15A C48G: 0.0967; for G15C A45G: 0.194.
As for G15C A45U, the figure is 0.191; as for G15U A41U, 1.41.
Regarding G15U A41C, the self-cleavage was 1.11.
The same measure for G15U C38G: 0.149; for U14G U55A: 0.0772; for U14G U55C: 0.286.
The same measure for U14G U70A: 0.823; for G15C A44G: 0.146.
As for G15C A64U, the figure is 0.186; as for G15C A22C, 0.846; as for G15C A22G, 0.746.
For G15A C18G, the self-cleavage stood at 0.886.
Regarding G15A C65A, the self-cleavage is 0.863.
The same measure for G15U A22C: 0.681; for G15U A22G: 1.12.
As for G15A A41G, the figure is 0.92.
The same measure for G15U A23C: 1.14; for G15U A23U: 0.918; for G15U A23G: 0.87.
Turning to G15C A41G, the self-cleavage was 1.04.
The same measure for G15C A41U: 1.28; for G15C A41C: 1.28; for G15A A24U: 0.688.
As for G15C G27A, the figure is 0.555; as for U14G U62G, 0.106; as for G15C U58C, 0.974.
As for G15C U58A, the figure is 0.751; as for G15C U33C, 0.233.
Regarding G15C U33G, the self-cleavage was determined as 0.0645.
As for U14G G69A, the figure is 0.303; as for G15C G21A, 0.76; as for G15A U60A, 0.767.
The same measure for G15A A71G: 0.943; for G15A A71C: 1.29.
The same measure for G15C G54U: 0.647.
As to G15U A61U, the self-cleavage came out at 0.182.
For the variant G15U A61G, the self-cleavage is 0.164.
